The values below come from patent US20040176285A1, “Tip39 polypeptides” (priority 2001, published 2004).

The term IC50 denotes the midpoint of a concentration-inhibition curve. A lower IC50 goes with greater potency.

Where no end group is shown, it is not given here. Where only a bound is given, the exact number is not on record here.

The target of assay [1] is T1, PTH1R (Homo sapiens, UniProt Q03431).
T1 sequence (Q03431 27-593): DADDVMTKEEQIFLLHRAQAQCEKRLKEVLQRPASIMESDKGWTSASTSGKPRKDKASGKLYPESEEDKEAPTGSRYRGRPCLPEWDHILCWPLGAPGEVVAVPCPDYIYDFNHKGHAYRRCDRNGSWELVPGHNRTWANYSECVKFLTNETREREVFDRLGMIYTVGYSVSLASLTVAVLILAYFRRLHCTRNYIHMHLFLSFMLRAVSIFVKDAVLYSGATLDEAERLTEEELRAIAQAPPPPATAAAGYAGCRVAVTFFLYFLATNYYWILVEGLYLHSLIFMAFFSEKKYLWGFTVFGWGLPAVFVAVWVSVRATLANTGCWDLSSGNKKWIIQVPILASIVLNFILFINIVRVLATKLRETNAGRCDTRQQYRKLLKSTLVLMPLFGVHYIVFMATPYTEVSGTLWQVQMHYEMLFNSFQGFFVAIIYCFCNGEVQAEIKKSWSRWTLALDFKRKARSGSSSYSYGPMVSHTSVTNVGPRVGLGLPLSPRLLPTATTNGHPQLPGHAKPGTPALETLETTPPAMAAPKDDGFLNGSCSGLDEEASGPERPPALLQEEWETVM
Particulars: cited from earlier work.

Assay [2] deals with T1, PTH1R. The following applies: cited from earlier work. This is another data set of the same source.
Assay [3] deals with T2, human PTH/PTHrP receptor (PTH1R) (human, UniProt Q03431 27-593).
T2 sequence (looked up): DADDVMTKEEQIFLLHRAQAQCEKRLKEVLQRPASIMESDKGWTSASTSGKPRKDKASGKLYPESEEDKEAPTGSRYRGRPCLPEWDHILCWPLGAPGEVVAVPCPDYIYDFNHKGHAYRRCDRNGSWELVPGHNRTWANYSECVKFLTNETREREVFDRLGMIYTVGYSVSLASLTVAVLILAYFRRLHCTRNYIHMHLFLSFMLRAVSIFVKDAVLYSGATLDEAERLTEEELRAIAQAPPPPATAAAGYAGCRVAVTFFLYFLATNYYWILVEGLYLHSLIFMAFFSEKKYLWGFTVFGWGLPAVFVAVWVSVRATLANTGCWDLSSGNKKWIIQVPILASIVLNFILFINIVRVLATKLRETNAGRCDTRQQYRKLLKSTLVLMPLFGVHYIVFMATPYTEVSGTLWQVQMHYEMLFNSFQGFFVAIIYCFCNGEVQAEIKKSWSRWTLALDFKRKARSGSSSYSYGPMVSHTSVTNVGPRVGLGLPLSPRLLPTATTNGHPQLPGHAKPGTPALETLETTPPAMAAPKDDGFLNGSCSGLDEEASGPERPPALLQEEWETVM
Kind of assay: cell-based or functional assay.

For assay [4], the target named is T2, human PTH/PTHrP receptor (PTH1R). Kind of assay: cell-based or functional assay. The source holds these as a separate data set.
The target is the same in assay [5]. In words: radioreceptor competition on HKrk-B7 cells. On the procedure:
(§1) Specific binding was determined after subtracting radioactivity bound in the presence of maximal concentrations of unlabeled competing peptide (10⁻⁶ M). Agonist-dependent stimulation of cAMP accumulation by HKrk-B7 and SaOS-2 cells (48-well plates; stimulation at room temperature for 45 minutes) and the subsequent measurement of cAMP by radioimmunoassay was performed as previously described (Gardella, T. J., et al., J. Biol. Chem. 271:19888-19893 (1996); Bergwitz, C., et al., Endocrinology 139:723-732 (1998)). Data were analyzed and graphically illustrated using the graph-pad prism software package.

Assay [6] shares this target. Kind of assay: radioreceptor competition on HKrk-B7 cells; either tracer. On the procedure: as §1
For assay [7] the target is unchanged. In words: radioreceptor competition on HKrk-B7 cells; tracer 125I-[Tyr36]PTHrP(1-36)amide. The protocol:
(§2) Na¹²⁵I (specific activity: 2,000 Ci/mmol) was purchased from DuPont/NEN, Boston, Mass. Fetal bovine serum, 3-isobutyl-1-methyl-xanthine (IBMX), and BSA were from Sigma, St. Louis, Mo., and trifluoroacetic acid (TFA) was from Pierce, Rockford, Ill. […] After 4 h at 16° C., buffer was completely removed, the cells were rinsed with cold BB and lysed with 1 M NaOH. The entire lysate was counted for γ-irradiation. Specific binding was determined after subtracting radioactivity bound in the presence of maximal concentrations of unlabeled competing peptide (10⁻⁶ M). Agonist-dependent stimulation of cAMP accumulation by HKrk-B7 and SaOS-2 cells (48-well plates; stimulation at room temperature for 45 minutes) and the subsequent measurement of cAMP by radioimmunoassay was performed as previously described (Gardella, T. J., et al., J. Biol. Chem. 271:19888-19893 (1996); Bergwitz, C., et al., Endocrinology 139:723-732 (1998)). Data were analyzed and graphically illustrated using the graph-pad prism software package.

For assay [8] the target is unchanged. Kind of assay: radioreceptor competition on HKrk-B7 cells; tracer 125I-rat [Nle8,21,Tyr34]PTH(1-34)amide. The protocol:
as §2

As for “TIP(7-39): truncated TIP39 of Hoare et al., excluded from the claims (DAAFRERARLLAALERRHWLNSYMHKLLVLDAP; Tuberoinfundibular peptide of 39 residues; UniProt P0C171 68-100, looked up, fragment)”, in the assay with PTH1R [1], the “inhibition of radioligand binding to the PTH1R (in words)” value was “efficiently inhibited radioligand binding”. Further, the “agonist activity at the PTH1R (in words)” value in the assay with PTH1R [2] is given as “no agonist activity”.
“[Leu^11, D-Trp^12, Trp^23, Tyr^36]PTHrP(7-36)amide (from UniProt P12272 43-72) (peptide)”: in assay [3], the IC50 of inhibition of agonist-stimulated cAMP accumulation, HKrk-B7 cells came out at 100 nM.

B1: TIP(9-39) (peptide)
peptide: AFRERARLLAALERRHWLNSYMHKLLVLDAP
modifications: not fully specified (C-terminus)
notes: also called human TIP-(9-39)
As for B1, the “IC50 of inhibition of agonist-stimulated cAMP accumulation, HKrk-B7 cells (agonists PTH(1-34), PTHrP(1-36) or PTHrP(1-20)/TIP(23-39), 1 nM)” value in assay [4] amounted to 300 nM. Also, in assay [5], the “fold higher apparent binding affinity in comparison to the parent peptide TIP(1-39)” value is ~5.5 fold. Moreover, the “fold improvement in apparent binding affinity relative to TIP(1-39)” value in assay [6] was ≤ 6 fold. Further, the IC50 in assay [7] came to 44 nM; in assay [8], 39 nM.
